In US20250052768A1 (UNIVERSIT T HEIDELBERG, published 2025):

What was measured:
[1] = target: T1, DLL1 antigen (recombinant DLL1 protein) (human, UniProt O00548 18-540, limits assumed); experiment: sandwich ELISA, capture AbD33905, detection AbD33905-HRP, DLL1 2 ug/ml
T1 construct: also called Delta-like 1
T1 sequence (looked up): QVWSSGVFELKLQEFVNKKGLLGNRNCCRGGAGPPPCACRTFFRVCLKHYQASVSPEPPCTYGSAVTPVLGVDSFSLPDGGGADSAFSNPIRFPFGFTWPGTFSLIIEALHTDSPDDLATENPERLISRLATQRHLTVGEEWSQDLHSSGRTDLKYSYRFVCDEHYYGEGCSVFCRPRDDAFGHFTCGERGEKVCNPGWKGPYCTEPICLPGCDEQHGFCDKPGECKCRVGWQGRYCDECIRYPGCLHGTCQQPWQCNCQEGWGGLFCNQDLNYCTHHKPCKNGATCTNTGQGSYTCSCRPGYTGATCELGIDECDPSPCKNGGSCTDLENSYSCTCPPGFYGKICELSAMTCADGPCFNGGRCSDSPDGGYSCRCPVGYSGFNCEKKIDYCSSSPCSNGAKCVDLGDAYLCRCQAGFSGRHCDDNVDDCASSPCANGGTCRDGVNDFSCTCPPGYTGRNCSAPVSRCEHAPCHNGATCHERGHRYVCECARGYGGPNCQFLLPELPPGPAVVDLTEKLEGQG
Protocol: (§1) As control coating a-Fd (Bio-Rad antibodies, STAR126) at 5 μg/ml in PBS was used. Per well a volume of 20 μl coating solution was used. The Polystyrene ELISA plates were then incubated overnight at 4° C. with a closed lid. […] Subsequently, blocking of non-specific binding sites was performed with 100 μl per well of PBST containing 5% (w/v) BSA (Sigma-Aldrich, A7906-100). This blocking step was conducted at RT for 1-2 h. After removal of the blocking solution, five washes with PBST were performed. Thereafter, 2 μg/ml DLL1 antigen in PBST were added or PBST only (20 μl per well, triplicates were prepared). Incubation with the DLL1 antigen solution or PBST was performed at RT for 1 h. Next, the DLL1 antigen solution or PBST were removed and five washes with PBST were performed. […] After removal of this solution, ten washes with PBST were performed. […] For detection in the ELISA reader (Tecan Infinite M1000Pro Reader, Tecan Austria GmbH) excitation was performed at 320±25 nm and emission was detected at 430±35 nm.

[2] = target: T1, DLL1 antigen (recombinant DLL1 protein); experiment: sandwich ELISA, capture AbD33905, detection AbD33906-HRP, DLL1 2 ug/ml
Protocol: as §1

[3] = target: N1-CD33-His6; experiment: ELISA on antigen coated at 5 ug/ml, anti-Strep-HRP secondary antibody
Protocol: (§2) The binding specificity of AbD33905 in form of a bivalent Fab fragment fused to alkaline phosphatase followed by a FLAG®-tag and Twin-Strep®-tag was tested in the following ELISA:
(§3) Per well a volume of 20 μl coating solution was used. The Polystyrene ELISA plates were then incubated overnight at 4° C. with a closed lid. […] Subsequently, blocking of non-specific binding sites was performed with 100 μl per well of PBST containing 5% (w/v) non-fat dry milk. This blocking step was conducted at RT for 1-2 h. After removal of the blocking solution, five washes with PBST were performed. Thereafter, AbD33905 in form of a bivalent Fab fragment fused to alkaline phosphatase followed by a FLAG®-tag and Twin-Strep®-tag in PBST was added (20 μl per well). Incubation with this AbD33905 Fab fragment was performed at RT for 1 h. Next, the AbD33905 Fab fragment containing solution was removed and five washes with PBST were performed. Thereafter 20 μl/well of 2 μg/ml anti-Strep-HRP secondary antibody (Bio-Rad antibodies, MCA2489P, 1:5000) in HISPEC assay diluent (Bio-Rad Antibodies, BUF049) were added and incubated at RT for 1 h. After removal of this solution, ten washes with PBST were performed. […] For detection in the ELISA reader (Tecan Infinite M1000Pro Reader, Tecan Austria GmbH) excitation was performed at 320±25 nm and emission was detected at 430±35 nm.

[4] = target: bovine serum albumin (BSA) (bovine, UniProt P02769 25-607); experiment: as above
Protocol: as §2, §3

[5] = target: GST; experiment: as above
Protocol: as §2, §3

[6] = target: T1, DLL1 antigen (recombinant DLL1 protein); experiment: as above
Protocol: as §2, §3

[7] = target: T1, DLL1 antigen (recombinant DLL1 protein); experiment: sandwich ELISA, capture AbD33906, detection AbD33906-HRP, DLL1 2 ug/ml
Protocol: as §1

[8] = target: T1, DLL1 antigen (recombinant DLL1 protein); experiment: sandwich ELISA, capture AbD33906, detection AbD33905-HRP, DLL1 2 ug/ml
Protocol: as §1

Sequence of bovine serum albumin (BSA) (P02769 25-607 limits assumed): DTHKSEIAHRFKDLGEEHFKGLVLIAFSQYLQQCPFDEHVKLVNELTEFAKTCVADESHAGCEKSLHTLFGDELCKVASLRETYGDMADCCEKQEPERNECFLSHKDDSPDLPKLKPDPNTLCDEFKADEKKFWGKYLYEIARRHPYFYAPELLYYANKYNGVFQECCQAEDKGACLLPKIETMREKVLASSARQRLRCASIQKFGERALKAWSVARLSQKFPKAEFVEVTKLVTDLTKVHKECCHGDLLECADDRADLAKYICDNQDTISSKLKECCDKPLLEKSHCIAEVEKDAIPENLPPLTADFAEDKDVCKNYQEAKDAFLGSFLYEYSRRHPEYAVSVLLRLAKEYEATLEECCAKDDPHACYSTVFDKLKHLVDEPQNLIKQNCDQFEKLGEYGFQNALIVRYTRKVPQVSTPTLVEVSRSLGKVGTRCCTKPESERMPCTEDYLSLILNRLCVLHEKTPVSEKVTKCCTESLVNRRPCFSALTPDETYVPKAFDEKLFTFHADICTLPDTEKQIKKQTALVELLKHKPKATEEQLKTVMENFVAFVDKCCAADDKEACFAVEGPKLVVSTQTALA
Sequence of GST (P08515 2-218): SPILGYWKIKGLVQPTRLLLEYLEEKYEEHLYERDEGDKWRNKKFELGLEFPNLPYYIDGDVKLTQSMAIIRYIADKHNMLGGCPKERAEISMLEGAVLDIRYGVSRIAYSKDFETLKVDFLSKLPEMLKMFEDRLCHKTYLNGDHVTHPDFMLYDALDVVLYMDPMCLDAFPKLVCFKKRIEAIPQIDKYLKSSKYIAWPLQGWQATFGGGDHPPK

B1: AbD33905 (Fab fragment, monovalent) (Fab, V domains shown)
VH: EVQLLESGGGLVQPGGSLRLSCAASGFTFSSYAMHWVRQAPGKGLEWVSFISSGGSTTYYADSVKGRFTISRDNSKNTLYLQMNSLRAEDTAVYYCARFRSGYFDYWGQGTLVTVSS
VL: DIVMTQSPLSLPVTPGEPASISCRSSQSLVHSNGADYLNWYLQKPGQSPQLLIYKGSNRDSGVPDRFSGSGSGTDFTLKISRVEAEDVGVYYCQQGYDFPPFTFGQGTKVEIKR
notes: Monovalent Fab; also called Ab33905; monovalent AbD33905
For B1, the “emission value DLL1 antigen/emission value PBST” value [1] was 8 ratio and the “emission value DLL1 antigen/emission value PBST” value [2] was 66 ratio.

B2: AbD33905 in form of a bivalent Fab fragment fused to alkaline phosphatase followed by a FLAG-tag and Twin-Strep-tag (Fab, V domains shown)
VH: EVQLLESGGGLVQPGGSLRLSCAASGFTFSSYAMHWVRQAPGKGLEWVSFISSGGSTTYYADSVKGRFTISRDNSKNTLYLQMNSLRAEDTAVYYCARFRSGYFDYWGQGTLVTVSS
VL: DIVMTQSPLSLPVTPGEPASISCRSSQSLVHSNGADYLNWYLQKPGQSPQLLIYKGSNRDSGVPDRFSGSGSGTDFTLKISRVEAEDVGVYYCQQGYDFPPFTFGQGTKVEIKR
notes: it is put on the heavy chain here; also called AbD33905 bivalent Fab fragment; not shown: alkaline phosphatase, then FLAG-tag and Twin-Strep-tag
For B2, the Emission data [3] was 46 arbitrary units, the Emission data [4] was 71 arbitrary units and the Emission data [5] was 70 arbitrary units. It also gave an Emission data [6] of 15500 arbitrary units.

B3: AbD33906 (Fab fragment, monovalent) (Fab, V domains shown)
VH: QVQLVQSGAEVKKPGSSVKVSCKASGGTFSSYAISWVRQAPGQGLEWMGGIIPQFGIANYAQKFQGRVTITADESTSTAYMELSSLRSEDTAVYYCAREGYSDYSAFDYWGQGTLVTVSS
VL: DIALTQPASVSGSPGQSITISCTGTSSDVGTYNYVNWYQQHPGKAPKVMIYRVSNRPSGVSNRFSGSKSGNTASLTISGLQAEDEADYYCSSWDEHSYVFGGGTKLTVLG
notes: also called AbD33906 Fab fragments
For B3, the “emission value DLL1 antigen/emission value PBST” value [7] was 7 ratio and the “emission value DLL1 antigen/emission value PBST” value [8] was 132 ratio.
